Here are results for 2 molecules from paper PMC7036004.

Where two headings read alike, the source gives them in different places.

Holding throughout (assay): fluorescence polarization
The target of data set [1] is T1, ΔRBRi-CTCF (3xFLAG-Halo-ΔRBRi-CTCF-6xHis) (mouse, UniProt Q61164 1-575+612-736, internal_change).
T1 sequence: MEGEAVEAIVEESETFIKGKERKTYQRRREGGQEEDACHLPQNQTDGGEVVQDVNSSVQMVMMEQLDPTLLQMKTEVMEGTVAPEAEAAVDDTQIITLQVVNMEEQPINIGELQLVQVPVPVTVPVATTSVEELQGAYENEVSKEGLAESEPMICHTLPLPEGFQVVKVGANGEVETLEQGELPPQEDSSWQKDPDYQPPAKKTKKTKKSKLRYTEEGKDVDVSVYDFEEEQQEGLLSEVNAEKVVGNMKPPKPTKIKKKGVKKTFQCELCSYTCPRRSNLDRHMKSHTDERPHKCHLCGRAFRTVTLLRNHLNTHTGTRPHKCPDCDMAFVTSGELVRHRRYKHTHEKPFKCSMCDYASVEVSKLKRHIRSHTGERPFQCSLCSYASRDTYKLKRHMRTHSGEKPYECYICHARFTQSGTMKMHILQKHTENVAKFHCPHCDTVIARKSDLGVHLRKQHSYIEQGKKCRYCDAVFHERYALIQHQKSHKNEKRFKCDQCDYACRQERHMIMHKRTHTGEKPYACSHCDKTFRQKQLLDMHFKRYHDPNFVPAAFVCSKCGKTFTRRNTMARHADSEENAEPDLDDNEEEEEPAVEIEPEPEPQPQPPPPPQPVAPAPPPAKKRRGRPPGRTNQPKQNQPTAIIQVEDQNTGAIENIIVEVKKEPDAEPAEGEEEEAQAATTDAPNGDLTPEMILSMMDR

Data set [2] deals with T2, wt-CTCF (3xFLAG-Halo-wt-CTCF-6xHis) (mouse, UniProt Q61164 1-736).
T2 sequence: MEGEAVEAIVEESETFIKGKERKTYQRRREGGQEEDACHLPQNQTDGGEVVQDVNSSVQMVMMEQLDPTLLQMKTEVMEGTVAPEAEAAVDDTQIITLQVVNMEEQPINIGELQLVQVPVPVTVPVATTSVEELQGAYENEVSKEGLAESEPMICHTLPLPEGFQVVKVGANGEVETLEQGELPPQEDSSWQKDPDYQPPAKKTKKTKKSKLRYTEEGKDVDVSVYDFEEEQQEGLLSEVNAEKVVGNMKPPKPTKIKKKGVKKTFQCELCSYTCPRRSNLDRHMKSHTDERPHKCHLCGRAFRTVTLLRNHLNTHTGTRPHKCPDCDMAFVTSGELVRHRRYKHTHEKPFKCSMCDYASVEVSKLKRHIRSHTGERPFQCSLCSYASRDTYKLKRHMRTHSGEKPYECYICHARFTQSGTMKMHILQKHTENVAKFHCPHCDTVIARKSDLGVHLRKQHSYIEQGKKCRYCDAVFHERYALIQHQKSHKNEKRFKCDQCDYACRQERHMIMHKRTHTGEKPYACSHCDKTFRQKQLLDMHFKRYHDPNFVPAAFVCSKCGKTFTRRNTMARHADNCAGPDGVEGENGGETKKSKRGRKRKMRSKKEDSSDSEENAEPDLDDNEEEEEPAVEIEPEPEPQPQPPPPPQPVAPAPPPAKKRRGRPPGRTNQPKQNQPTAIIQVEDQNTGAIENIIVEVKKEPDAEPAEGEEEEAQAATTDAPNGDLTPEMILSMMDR

For data set [3], the target named is T1, ΔRBRi-CTCF …. This is another data set of the same source.
For data set [4], the target named is T2, wt-CTCF (3xFLAG-Halo-wt-CTCF-6xHis). The source holds these as a separate data set.

B1: Core CTCF binding site duplex (dsDNA)
DNA 1: AGGACCAGCAGGGGGCGCA
DNA 2: TGCGCCCCCTGCTGGTCCT
For B1, the binding result in data set [1] and in data set [2] was “binds” in each case.

B2: Mutated core CTCF binding site duplex (dsDNA)
DNA 1: AGGATTCTAATTTCGATCA
DNA 2: TGATCGAAATTAGAATCCT
Turning to B2, the binding result in data set [3] and in data set [4] was “no binding” throughout.
